The numbers were not newly measured in paper PMC12152951, which cites them from elsewhere.

One series has as its target IL7Rα (Homo sapiens) (UniProt P16871).
In a further series the target is TSLPR (Homo sapiens) (UniProt Q9HC73).
Series [1] has as its target TSLPR-IL7Rα fusion protein (Homo sapiens) (UniProt Q9HC73).

UniProt P16871, sequence (P16871 21-239): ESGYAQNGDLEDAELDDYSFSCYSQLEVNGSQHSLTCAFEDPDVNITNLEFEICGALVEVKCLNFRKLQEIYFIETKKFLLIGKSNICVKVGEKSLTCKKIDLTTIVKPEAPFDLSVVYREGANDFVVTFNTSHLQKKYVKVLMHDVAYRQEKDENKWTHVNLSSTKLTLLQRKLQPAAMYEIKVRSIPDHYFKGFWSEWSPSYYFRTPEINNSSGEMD

Take “TSLP-TSLPR complex (from UniProt Q969D9)”: in the series with IL7Rα (Homo sapiens), the dissociation constant Kd was 29 nM.

TSLP (from UniProt Q969D9): the dissociation constant Kd in the series with TSLPR (Homo sapiens) was 32 nM; in series [1] it was 0.09 nM.

The term Kd denotes the free concentration of one partner at which half of the binding sites on the other are occupied at equilibrium, for simple one-to-one binding.
